Where no end group is shown, it is not given here.
What was measured:
[1] = biological target: Abeta 1-40 peptide (Canis lupus familiaris, UniProt Q28280); assay: Anti-Abeta IgG titration (ELISA) of serum from immunized rabbits; type: in vivo, rabbit
Protocol: To design a veterinary vaccine composition that generates a high level of high affinity antibodies with cross reactivity to the soluble Abeta 1-40 peptide and the plaques in the CNS of dogs with CDS, the relative immunogeneicity of the synthesized sequences of example 1 were characterized separately. To do that, SEQ ID NO 1 and SEQ ID NO 3 were administered conjugated with KLH and mixed with 1 mg of Alum (Sigma, St Louis, U.S.A.) an adjuvant of general veterinary use. The relative immunogenicity of the two peptide sequences was compared according to standard titration of the immune products generated.
Experiments were performed in adult female New Zealand White rabbits weighing between 1.5-2 kg at the beginning of the study. They were kept on a 12 h light/12 h dark cycle and housed with free access to food and water. All animals were manipulated according to the European legislation (86/609/EEC) for animal handling and experimentation. Procedures were approved by the Ethic Committee of the Universitat de Barcelona, under supervision of the Generalitat de Catalunya; all efforts were made to minimize animal suffering and to use only the number of animals necessary to produce reliable scientific data.
Rabbits were subcutaneously immunized with 100 μg of peptide from either: a) SEQ ID NO 3 conjugated with KLH and 1 mg Alum used as adjuvant (n=2); b) SEQ ID NO 1 conjugated with KLH and 1 mg Alum used as adjuvant (n=2); or c) KLH and 1 mg Alum (no peptide n=2). The immunization protocol consisted of a dose subcutaneously delivered up to six sites near the back of the neck, and repeated at days 11, 21, 31 and 41.
Samples of serum were collected from each rabbit at days 0, 21, 31 and 51. Each time, 5 ml blood samples were collected from the ear marginal vein in plastic tubes with no additive. At day 71 rabbits were anaesthetized and exanguinated. Blood samples were then kept at room temperature (RT) for 30 min, afterwards they were centrifuged for 10 min at 3000 rpm. Supernatants were collected as serum samples, aliquoted and stored at −80° C.
Titration of serum samples to detect the presence of antibodies that had been raised by SEQ ID NO 1 and SEQ ID NO 3 was performed by Enzime-Linked Immunosorbent Assays (ELISA) on 96-well plates developed by the biotin-avidin-peroxidase method. Plate sensitization was made overnight at 4° C. with 2 μg/ml of Abeta 1-40 peptide diluted in 50 mM NaHCO3, pH 9.6. […] After washing, specific binding was detected by incubation with Biotin conjugated anti-Rabbit IgG antibody (Sigma, St. Louis, Mo., U.S.A) diluted 1/20000 in TBS for 1 hour at RT. […] Plates were densitometrically analyzed at 450 nm with a Tecan Sunrise Absorbance Reader apparatus (Tecan Iberica, Madrid, Spain). […]

[2] = biological target: T1, canine Abeta 1-40 peptide (Canis lupus familiaris, UniProt Q28280); assay: Anti-Abeta IgG titration (ELISA) of serum from immunized dogs; type: in vivo, dog
T1 construct: made in house; host or cells: chemical synthesis (Fmoc solid phase), no expression host
Protocol: To validate the immunogenicity of the peptide according to the present invention, dogs were immunized with the synthesized Abeta 28-40 peptide (SEQ ID NO 3) and antibody generation was assessed in serum samples by ELISA. To do that, the peptide fragment was administered conjugated with KLH and mixed with 1 mg Alum (Sigma, St. Louis, Mo., U.S.A.), an adjuvant of general veterinary use. The immunogenicity of the Abeta28-40 peptide was compared versus pre-immune serum according to standard titration of the immune products generated.
Male and female dogs of various breeds, sex and ages certified by their medical records from the veterinary hospital Ars Veterinaria of Barcelona, Spain, were used in this study. In all cases, pet owners formally informed approved the treatment of their dogs. All animals were treated according to European legislation on animal experimentation (86/609/EU), and procedures were approved by the Ethical Committee of the University of Barcelona. All efforts were made to minimize animal suffering and to use no more than the number of animals needed for reliable scientific data.
Dogs were subcutaneously immunized with either: a) 100 μg per animal of SEQ ID NO 3 conjugated with KLH and 1 mg Alum used as adjuvant (n=2) or b) 100 μg per animal of KLH and 1 mg Alum (no peptide n=2). […]

[3] = biological target: T1, canine Abeta 1-40 peptide; assay: ELISA titration of affinity-purified antibodies from rabbit serum; type: binding, dog
Excerpt: Antibody purification was made by affinity chromatography in columns of 4B Sepharose activated with BrCN (GE healthcare 15gr) according to standard procedures. Synthetic Abeta1-40 peptide (SEQ ID NO 1) was linked to the BrCN and used as antigen for the affinity purification of antibodies. Anti-Abeta28-40 antibodies were purified from rabbit serum samples presenting the highest level of titers, i.e. serum samples collected on day 31 after immunization (example 2). The same was true for serum samples used for purification of anti-Abeta 1-40 antibodies. Purified antibodies were firstly eluted with an acid solution of 100 mM glycine in PBS (pH 2.5) and, then with a basic solution of 100 mM glycine and 4 M urea in PBS (pH 9)
The purified antibodies were quantified by ELISA on 96-well plates developed by the biotin-avidin-peroxidase method. Plate sensitization was made overnight at 4° C. with […] of canine Abeta 1-40 peptide diluted in 50 mM NaHCO3 pH 9.6. The ELISA procedure was then carried out as explained in example 2.

[4] = system: aged beagles; details: aged beagles (8.4-12.4 years) immunized for 2.4 years; cited from earlier work
[5] = system: Aβ 1-40 and Aβ 1-42, diffuse plaque; details: aged beagles (8.4-12.4 years) immunized for 2.4 years; several cortical regions; cited from earlier work

Chain of Abeta 1-40 peptide (Q28280 7-46 limits assumed): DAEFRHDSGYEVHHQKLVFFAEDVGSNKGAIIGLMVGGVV
T1 sequence (Q28280 7-46): as the sequence (Q28280 7-46 limits assumed) above

serum dilution that presents half of the maximal binding (B1/2) ([1]; 100 μg peptide s.c. conjugated with KLH + 1 mg Alum, repeated days 11, 21, 31, 41, serum of day 31) | immunogenic response compared with SEQ ID NO 1 ([1]; comparison of B1/2 dilutions of day 31) | specific production of antibodies in serum samples ([1]; peptide-KLH + Alum s.c., from day 21 following the first immunization) | day of highest levels of immunization ([1]; peptide-KLH + Alum s.c., serum days 0, 21, 31, 51) | specific production of anti-Abeta antibodies in serum samples ([2]; 100 μg per animal conjugated with KLH + 1 mg Alum s.c., repeated days 31, 61, 75, day 30 after first immunization) | day of highest values of optic density ([2]; peptide-KLH + Alum s.c., serum days 0, 30, 60, 74, 90) | titers of anti-Abeta antibodies in the basic elution ([3]; basic elution (100 mM glycine, 4 M urea, pH 9), slightly lower than the acid elution) | titers of specific antibodies against canine Abeta1-40 in purified sera ([3]; day 31 serum of immunized rabbits, affinity purified on Abeta1-40 column) | Substance | measures of learning, spatial attention, or spatial memory [4] | extent of diffuse plaque accumulation [5] | levels of soluble and insoluble Aβ 1-40 and Aβ 1-42 [5]
1/611 | higher immunogenic response | detected | 31 days | detected | 74 days | high titers | High titers | KGAIIGLMVGGVV (also: KLH conjugate) [SEQ ID NO 3, canine Abeta protein amino acids 28 to 40; tested conjugated with KLH plus Alum] | – | – | –
– | – | – | – | – | – | – | – | fibrillar Aβ (1-42): fibrillar Aβ (1-42) formulated with aluminum salt (Alum), Head et al. 2008 | no improvement | significantly decreased | significantly decreased

Reference: US20110129488A1, “IMMUNOTHERAPY COMPOSITIONS FOR THE TREATMENT AND PREVENTION OF AMYLOIDOSIS” (MEDIVET PHARMA, S.L., priority 2008, published 2011)
